Laboratory results from patent US20050013803A1 (published 2005).

Experiments:
Experiment in all cases: co-immunoprecipitation with anti-Taz antibody from infected BMK cells, Western blot
[1] = target: T1, polyoma virus large T antigen, wild-type (strain PTA), full length (murine polyoma virus, strain PTA)
T1 construct: mature; also called normal large T antigen; WT large T antigen

[2] = target: T2, polyoma virus small T antigen, wild-type (murine polyoma virus)
T2 construct: also called sT

[3] = target: T3, polyoma virus middle T antigen, wild-type (murine polyoma virus)
T3 construct: also called mT
T3 sequence (P0DOJ8 whole entry): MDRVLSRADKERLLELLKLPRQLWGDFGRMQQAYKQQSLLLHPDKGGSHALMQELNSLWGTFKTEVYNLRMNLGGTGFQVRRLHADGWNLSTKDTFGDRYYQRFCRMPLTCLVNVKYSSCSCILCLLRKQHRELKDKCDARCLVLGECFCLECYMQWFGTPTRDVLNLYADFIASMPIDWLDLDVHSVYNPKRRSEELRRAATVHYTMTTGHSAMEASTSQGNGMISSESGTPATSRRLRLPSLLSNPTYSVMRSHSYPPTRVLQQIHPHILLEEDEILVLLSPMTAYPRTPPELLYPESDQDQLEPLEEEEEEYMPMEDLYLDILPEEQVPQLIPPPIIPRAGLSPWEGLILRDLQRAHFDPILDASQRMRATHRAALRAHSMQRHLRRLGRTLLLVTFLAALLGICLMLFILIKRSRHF

T1 sequence (P0DOJ5 whole entry): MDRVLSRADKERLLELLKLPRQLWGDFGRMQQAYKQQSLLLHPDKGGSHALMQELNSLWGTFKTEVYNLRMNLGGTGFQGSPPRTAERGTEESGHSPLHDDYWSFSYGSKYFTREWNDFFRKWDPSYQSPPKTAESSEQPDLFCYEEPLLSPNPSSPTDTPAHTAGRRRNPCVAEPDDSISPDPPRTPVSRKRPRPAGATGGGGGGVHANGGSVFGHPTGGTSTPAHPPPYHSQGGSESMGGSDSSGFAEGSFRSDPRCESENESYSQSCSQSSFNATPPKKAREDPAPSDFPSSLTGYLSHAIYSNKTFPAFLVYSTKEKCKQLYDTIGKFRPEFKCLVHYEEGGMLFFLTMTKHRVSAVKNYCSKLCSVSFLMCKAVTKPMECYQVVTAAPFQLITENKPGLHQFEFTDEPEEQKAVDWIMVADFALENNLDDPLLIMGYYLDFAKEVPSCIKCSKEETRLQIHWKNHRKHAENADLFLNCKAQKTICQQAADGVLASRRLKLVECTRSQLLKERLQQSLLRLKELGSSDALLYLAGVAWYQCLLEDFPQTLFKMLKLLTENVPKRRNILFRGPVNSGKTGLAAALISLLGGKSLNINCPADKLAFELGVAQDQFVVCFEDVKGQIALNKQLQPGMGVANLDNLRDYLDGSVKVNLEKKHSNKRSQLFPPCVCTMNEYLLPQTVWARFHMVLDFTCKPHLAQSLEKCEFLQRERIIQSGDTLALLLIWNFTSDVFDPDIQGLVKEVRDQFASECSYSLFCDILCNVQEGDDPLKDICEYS
T2 sequence (P68834 whole entry): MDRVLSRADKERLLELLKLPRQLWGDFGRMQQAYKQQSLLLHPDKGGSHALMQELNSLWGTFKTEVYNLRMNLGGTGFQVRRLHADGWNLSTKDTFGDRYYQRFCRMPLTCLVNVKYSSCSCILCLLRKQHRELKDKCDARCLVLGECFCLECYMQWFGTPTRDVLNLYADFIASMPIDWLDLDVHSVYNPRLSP

B1: murine Taz (transcriptional co-activator with PDZ binding motif) (other, mouse, UniProt Q9EPK5 1-395, looked up)
chain: MNPSSVPHPLPPPGQQVIHVTQDLDTDLEALFNSVMNPKPSSWRKKILPESFFKEPDSGSHSRQSSTDSSGGHPGPRLAGGAQHVRSHSSPASLQLGTGAGAAGGPAQQHAHLRQQSYDVTDELPLPPGWEMTFTATGQRYFLNHIEKITTWQDPRKVMNQPLNHVNLHPSITSTSVPQRSMAVSQPNLAMNHQHQQVVATSLSPQNHPTQNQPTGLMSVPNALTTQQQQQQKLRLQRIQMERERIRMRQEELMRQEAALCRQLPMETETMAPVNTPAMSTDMRSVTNSSSDPFLNGGPYHSREQSTDSGLGLGCYSVPTTPEDFLSNMDEMDTGENSGQTPMTVNPQQTRFPDFLDCLPGTNVDLGTLESEDLIPLFNDVESALNKSEPFLTWL
notes: Endogenous protein immunoprecipitated from mouse cell extracts, or a library clone in yeast; also called mTaz
For B1, the relative binding efficiency [1] was 1 ratio large T: middle T: small T, the relative binding efficiency [2] was 100 ratio large T: middle T: small T and the relative binding efficiency [3] was 7 ratio large T: middle T: small T.
